{"source": "patent US11702469B2", "about": "“Recombinant EGFL7, EGFL7 antibodies, and uses thereof” (Ohio State Innovation Foundation, priority 2017, dated 2023)", "test_system": "wild type (C57Bl/6J) mice", "test": "Toxicity on normal hematopoiesis in wild type mice", "type": "in vivo", "settings": "50 mpk twice a week for two weeks", "experimental": "FIG. 20A-20B. WT mice were treated with 50 mpk twice weekly of Parsatuzumab (@EGFL7) or IgG1 control. FIG. 20A. CBCs from mice harvested after treatment. FIG. 20B. Percent engraftment of treated BM (CD45.2+) transplanted into BoyJ recipient mice (CD45.1).\nTo assess the toxicity of Parsatuzumab on normal hematopoiesis, wild type (C57Bl/6J) mice were treated with Parsatuzumab (n=4) and IgG1 control (n=4) with the highest dose previously tested at 50 mpk twice a week for two weeks. Parsatuzumab targets both human and mouse EGFL7 protein. After two weeks of treatment, blood, spleen and BM were harvested and full phenotypic characterization was performed to assess toxicity. […] Full immunophenotypic examination of BM populations was also performed (data not shown due to space constraints). […] To functionally test the effect of Parsatuzumab on normal HSPCs, competitive repopulation BM transplantation (BMT) assays and CFU assays were performed. For competitive BMT, 2×10^6 WBM was harvested from Parsatuzumab and IgG1 treated mice (CD45.2) with 2×10^6 BoyJ (CD45.1) WBM and transplanted into lethally irradiated BoyJ recipients.", "data": [{"molecule": "Parsatuzumab: Anti-human EGFL7 therapeutic antibody (Parsatuzumab) obtained from Creative Biolabs; blocking monoclonal antibody (antibody, chains of the INN, looked up, V domains shown) VH: EVQLVESGGGLVQPGGSLRLSCAASGYTFIDYYMNWVRQAPGKGLEWVGDINLDNSGTHYNQKFKGRFTISRDKSKNTAYLQMNSLRAEDTAVYYCAREGVYHDYDDYAMDYWGQGTLVTVSS VL: DIQMTQSPSSLSASVGDRVTITCRTSQSLVHINAITYLHWYQQKPGKAPKLLIYRVSNRFSGVPSRFSGSGSGTDFTLTISSLQPEDFATYYCGQSTHVPLTFGQGTKVEIK", "values": [{"measurement": "number of CFUs and types of colonies from treated BM", "setting": "vs IgG1", "value": "no significant changes in the number of CFUs or types of colonies formed"}, {"measurement": "full differential complete blood counts (CBCs)", "setting": "vs IgG1 control", "value": "No significant changes"}, {"measurement": "immunophenotypic examination of BM populations", "setting": "vs IgG1 control", "value": "no significant changes in any hematopoietic stem and/or progenitor populations"}]}]}
